{
  "source": "patent US20040014159",
  "key": {"[1]": {"system": "T1, bis-SPK-2 (KKALRRASLKG-R110-GKLSARRLAKK)", "T1 sequence": "KKALRRASLKG"}, "[2]": {"system": "T2, bis-STP-R110 (RRAT(PO3)VA-R110-AV(PO3)TARR)", "T2 sequence": "RRATVA"}, "[3]": {"system": "T3, bis-PTK5p-R110 (YIY(PO3)GAFKRRG-R110-GRRKFAG(PO3)YIY)", "T3 sequence": "YIYGAFKRRG"}, "[4]": {"system": "T4, kemptide-AMC (LRRASLG-AMC)", "T4 sequence": "LRRASLG"}, "[5]": {"system": "T5, LRRASLG-R110-GLSARRL, bis-rhodamine peptide kinase substrate (bis-kemptide)", "T5 sequence": "LRRASLG"}, "[6]": {"system": "T6, bis-SPK-4 (KKALRKASVRG-R110-GRVSAKRLAKK)", "T6 sequence": "KKALRKASVRG"}, "[7]": {"system": "T7, bis-PTK-5 (YIYGAFKRRG-R110-GRRKFAGYIY)", "T7 sequence": "YIYGAFKRRG"}, "[8]": {"target": "T8, bis-PTK5p-R110 (YIY(PO3)GAFKRRG-R110-GRRKFAG(PO3)YIY) (not fully specified)", "T8 chain": "YIYGAFKRRG"}},
  "data": [
    {"molecule": "AKT", "values": [
      {"measurement": "fluorescence output after aminopeptidase M", "setting": "[1]", "value": "the change in output fluorescence in each assay was inversely proportional to the amount of enzyme in the reaction (Results not shown)"}
    ]},
    {"molecule": "PKC", "values": [
      {"measurement": "fluorescence output after aminopeptidase M", "setting": "[1]", "value": "the change in output fluorescence in each assay was inversely proportional to the amount of enzyme in the reaction (Results not shown)"}
    ]},
    {"molecule": "PKG", "values": [
      {"measurement": "fluorescence output after aminopeptidase M", "setting": "[1]", "value": "the change in output fluorescence in each assay was inversely proportional to the amount of enzyme in the reaction (Results not shown)"}
    ]},
    {"molecule": "PP1", "values": [
      {"measurement": "fluorescence output after aminopeptidase M", "setting": "[2]", "value": "The results obtained show excellent proportionality between the fluorescence output and dephosphorylation of the substrate"}
    ]},
    {"molecule": "PP2B", "values": [
      {"measurement": "fluorescence output after aminopeptidase M", "setting": "[2]", "value": "The results obtained show excellent proportionality between the fluorescence output and dephosphorylation of the substrate"}
    ]},
    {"molecule": "PP2C", "values": [
      {"measurement": "fluorescence output after aminopeptidase M", "setting": "[2]", "value": "The results obtained show excellent proportionality between the fluorescence output and dephosphorylation of the substrate"}
    ]},
    {"molecule": "YOP 51", "values": [
      {"measurement": "fluorescence output after aminopeptidase M", "setting": "[3]", "value": "A similar profile was obtained with other tyrosine phosphatases, including YOP 51"}
    ]},
    {"molecule": "catalytic subunit of cAMP-dependent protein kinase (PKA)", "values": [
      {"measurement": "kinase reaction, fluorescence output after aminopeptidase M", "setting": "[1]", "value": "the peptide substrate bis-SPK-2 is a better substrate for PKA than the peptide substrate bis-SPK-4"},
      {"measurement": "fluorescence output (AMC) after aminopeptidase M, with and without 50 uM ATP", "setting": "[4]", "value": "In the presence of ATP, the fluorescence output decreased in proportion to the increase in amount of enzyme"},
      {"measurement": "fluorescence output (RFU) after aminopeptidase M", "setting": "[5]", "value": "there is a corresponding decrease in fluorescence output with increasing concentration or units of enzyme in the reaction"},
      {"measurement": "kinase reaction, fluorescence output after aminopeptidase M", "setting": "[6]", "value": "the peptide substrate bis-SPK-2 is a better substrate for PKA than the peptide substrate bis-SPK-4"}
    ]},
    {"molecule": "serine/threonine phosphatase PP2A", "values": [
      {"measurement": "fluorescence output after Aminopeptidase II", "setting": "[2]", "value": "an increase in phosphatase activity resulted in an increase in fluorescence"},
      {"measurement": "fluorescence output after aminopeptidase M", "setting": "[2]", "value": "PP2A dephosphorylated the substrate efficiently, and fluorescence increased proportionally to the amount of enzyme in the reaction"}
    ]},
    {"molecule": "tyrosine kinase lck", "values": [
      {"measurement": "fluorescence output after aminopeptidase M, with and without 100 uM ATP", "setting": "[7]", "value": "where 100 um ATP was included the decrease in fluorescence output was proportional to the increase in amount of enzyme in the reaction, and little or no change was observed in the absence of ATP"}
    ]},
    {"molecule": "PTP-1B, soluble tyrosine phosphatase (enzyme, UniProt P18031 1-435, looked up, species assumed) Tyrosine-protein phosphatase non-receptor type 1: MEMEKEFEQIDKSGSWAAIYQDIRHEASDFPCRVAKLPKNKNRNRYRDVSPFDHSRIKLHQEDNDYINASLIKMEEAQRSYILTQGPLPNTCGHFWEMVWEQKSRGVVMLNRVMEKGSLKCAQYWPQKEEKEMIFEDTNLKLTLISEDIKSYYTVRQLELENLTTQETREILHFHYTTWPDFGVPESPASFLNFLFKVRESGSLSPEHGPVVVHCSAGIGRSGTFCLADTCLLLMDKRKDPSSVDIKKVLLEMRKFRMGLIQTADQLRFSYLAVIEGAKFIMGDSSVQDQWKELSHEDLEPPPEHIPPPPRPPKRILEPHNGKCREFFPNHQWVKEETQEDKDCPIKEEKGSPLNAAPYGIESMSQDTEVRSRVVGGSLRGAQAASPAKGEPSLPEKDEDHALSYWKPFLVNMCVATVLTAGAYLCYRFLFNSNT", "values": [
      {"measurement": "fluorescence output after aminopeptidase M", "setting": "[3]", "value": "the increase in the fluorescence output is proportional to the amount of phosphatase added per reaction"}
    ]},
    {"molecule": "CD45, recombinant human receptor protein tyrosine phosphatase (protein) SCNLDEQQELVERDDEKQLMNVEPIHADILLETYKRKIADEGRLFLAEFQSIPRVFSKFPIKEARKPFNQNKNRYVDILPYDYNRVELSEINGDAGSNYINASYIDGFKEPRKYIAAQGPRDETVDDFWRMIWEQKATVIVMVTRCEEGNRNKCAEYWPSMEEGTRAFGDVVVKINQHKRCPDYIIQKLNIVNKKEKATGREVTHIQFTSWPDHGVPEDPHLLLKLRRRVNAFSNFFSGPIVVHCSAGVGRTGTYIGIDAMLEGLEAENKVDVYGYVVKLRRQRCLMVQVEAQYILIHQALVEYNQFGETEVNLSELHPYLHNMKKRDPPSEPSPLEAEFQRLPSYRSWRTQHIGNQEENKSKNRNSNVIPYDYNRVPLKHELEMSKESEHDSDESSDDDSDSEEPSKYINASFIMSYWKPEVMIAAQGPLKETIGDFWQMIFQRKVKVIVMLTELKHGDQEICAQYWGEGKQTYGDIEVDLKDTDKSSTYTLRVFELRHSKRKDSRTVYQYQYTNWSVEQLPAEPKELISMIQVVKQKLPQKNSSEGNKHHKSTPLLIHCRDGSQQTGIFCALLNLLESAETEEVVDIFQVVKALRKARPGMVSTFEQYQFLYDVIASTYPAQNGQVKKNNHQEDKIEFDNEVDKVKQDANCVNPLGAPEKLPEAKEQAEGSEPTSGTEGPEHSVNGPASPALNQGS", "values": [
      {"measurement": "fluorescence output after aminopeptidase M", "setting": "[8]", "value": "the increase in the fluorescence output is proportional to the amount of phosphatase added per reaction"}
    ]}
  ]
}
